Experiment [1] addresses T1, 비오틴 펩타이드-6xHis-tagged HCoV-OC43 N 단백질 (HCoV-OC43 N 단백질-Bio-His6) (HCoV-OC43, UniProt P33469 1-448).
T1 chain: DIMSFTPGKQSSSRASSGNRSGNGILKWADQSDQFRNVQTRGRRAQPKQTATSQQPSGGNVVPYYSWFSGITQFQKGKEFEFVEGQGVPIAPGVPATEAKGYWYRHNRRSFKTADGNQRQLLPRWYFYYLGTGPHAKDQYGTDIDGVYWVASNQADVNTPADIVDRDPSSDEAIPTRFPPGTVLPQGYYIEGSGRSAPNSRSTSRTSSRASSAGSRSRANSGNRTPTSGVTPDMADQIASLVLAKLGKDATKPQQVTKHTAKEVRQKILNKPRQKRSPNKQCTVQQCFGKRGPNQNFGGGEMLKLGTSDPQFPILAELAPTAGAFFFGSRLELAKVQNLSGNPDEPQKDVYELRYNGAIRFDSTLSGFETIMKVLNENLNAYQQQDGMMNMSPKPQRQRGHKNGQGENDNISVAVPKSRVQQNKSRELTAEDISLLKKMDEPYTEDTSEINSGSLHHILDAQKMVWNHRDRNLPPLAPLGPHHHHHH

Experiment [2] deals with SARS-CoV-2 N 단백질 (SARS-CoV-2 감염 Vero 세포 용해물) (SARS-CoV-2, UniProt P0DTC9 1-419). The experiment in a line: western blot of infected Vero cell lysates.
The target in experiment [3] is MERS-CoV N 단백질 (MERS-CoV 감염 Vero 세포 용해물) (MERS-CoV, UniProt K9N4V7 1-411). The experiment can be described thus: western blot of infected Vero cell lysates.

B1: 항-HCoV-OC43 N 단백질 특이적 단클론 항체 (클론 1C7D7 mAb) (antibody, V domains shown)
VH: EVKLEQSGGGLVKPGGSLKLSCAASGFSFSSHTMSWVRQTPEKRLEWVATITSGGTYTYYPDSVKGRFTISRDNAKNTLYLQMTSLKSEDTAMYYCTRGQEADGYYVPFAYWGQGTLVTVSA
VL: DIVMTQSPSSLAVSVGEKVTMSCKSSQSLLYSSNQKNYLAWYQQKPGQSPKLLIFWASTRESGVPDRFTGSGSGTDFTLTISSVQAEDLAVYYCKQSYNLRTFGGGTKLEIKR
notes: also called anti-HCoV-OC43 N monoclonal antibody
B1 showed an EC50 in experiment [1] of approximately 1.2 nM. Further, the binding result in experiment [2] and in experiment [3] was “no binding” throughout.

For the origin of these results see KR20230083068A (dated 2023).
